Fewer inactive variants are shown than the library holds.

Results on 84 variants are retold here after the RNAGym collection of RNA variant scans (doi:10.1073/pnas.2313332121).

B1: TPR 5TU (parent)
chain: GGAUCUUCUCGAUCUAACAAAAAAGACAAAUCUGCCACAAAGCUUGAGAGCAUCUUCGGAUGCAGAGGCGGCAGCCUUCGGUGGCGCGAUAGCGCCAACGUUCUCAACUAUGACACGCAAAACGCGUGCUCCGUUGAAUGGAGUUUAUCAUG

In this series the parent is B1. Nature of the series: polymerase ribozyme fitness, log enrichment relative to wild type (log ratio); higher = more active; in vitro selection for triplet polymerase activity. In a few lines:
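Mutant libraries were PCR-built and transcribed for each subunit of a heterodimeric triplet polymerase ribozyme and selected for one round in triplicate at −7 °C, frozen, before gel excision of extended constructs and streptavidin-bead capture. Input and output libraries were Illumina-sequenced, keeping genotypes with ≥10 input reads and ≥1 read per output. Fitness is a logarithmic ratio of genotype to wild-type enrichment, in base 2, using inverse-variance-weighted replicate averages.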
With A19U A20C A26U C85U C118A C125U U134G G143A, the “polymerase ribozyme fitness (log ratio)” value is at most -4.2.

A19G A47G G48A: the “polymerase ribozyme fitness (log ratio)” value was -3.23. Take A19G G83A C85A C96U A97C A119G: the “polymerase ribozyme fitness (log ratio)” value is at most -4.2. Next, A19U A22C U55G A64C A73G A91C U144A: at most -4.2; A19G G50A G83C G86U C96U: at most -4.2; A19G A28U A40C A60C G71U C75A G86U: at most -4.2. Consider A19G C85U G94U G141U, for which the “polymerase ribozyme fitness (log ratio)” value is 0.14. As for C18U C51U C96A G126C C132U, the “polymerase ribozyme fitness (log ratio)” value was -2.04. For the variant A19G G42U G50U A52U C75U G88U G92C G143A, the “polymerase ribozyme fitness (log ratio)” value is at most -4.2. Next, A19U C96G C114U: -2.99. Next, A19C A39U G84C C93A U148A: at most -4.2; A19G A97U: -0.98.

Take A19U C51U G58C C85U A91U C114U C118U: the “polymerase ribozyme fitness (log ratio)” value was at most -4.2. Next, A19U A23C A29G G83C A97U C103G U139C: at most -4.2; A19U C69U G92C G126C: -1.04; A19G G50U A73G C85U: -0.781. Next, C18U U31G A41G U56A C63U C95U C96G U144C: -2.53; A19U A40G U101G: -3.45; A19U C96G A122U: -0.445. Next, A19C C54A U78G C96U G141C: at most -4.2. For A19U A91G C93G U111A A137C, the “polymerase ribozyme fitness (log ratio)” value was at most -4.2.

Turning to A19U A22C A40C C43G A66C C95A G141U G152A, the “polymerase ribozyme fitness (log ratio)” value is -3.6.

For A19C C57U G94U, the “polymerase ribozyme fitness (log ratio)” value was -0.554.

For A19C C27G G70A C76U G94U C103U A120U C129A U148C, the “polymerase ribozyme fitness (log ratio)” value is at most -4.2.

For A19U A30C C95G, the “polymerase ribozyme fitness (log ratio)” value is at most -4.2. As for A19C A24U C93U U135C, the “polymerase ribozyme fitness (log ratio)” value was -2.84. As for C18U A142C, the “polymerase ribozyme fitness (log ratio)” value is -0.999. As for A19C G58C C87A C95A A98G, the “polymerase ribozyme fitness (log ratio)” value is at most -4.2. As to C18U U53A G74C A107U U135C G140C, the “polymerase ribozyme fitness (log ratio)” value was at most -4.2. Next, C18U U31A A60G G84C A89C C105U: -2.16. For the variant A19C A26C, the “polymerase ribozyme fitness (log ratio)” value is -1.76. Next, C18U A40C C93A: -2.24; A19G A28G A60G G86C A107G C118U G141U: at most -4.2. In the case of A19G U109C G141A, the “polymerase ribozyme fitness (log ratio)” value was -2.85.

C18U C51U U53A G83A: the “polymerase ribozyme fitness (log ratio)” value was -3.04. For the variant A19U A47G U53G G67C C99U A142C A147C, the “polymerase ribozyme fitness (log ratio)” value was at most -4.2. Take A19G U44C U56A C57U C85U C95G: the “polymerase ribozyme fitness (log ratio)” value was at most -4.2. Next, A19G G59U: -0.93; A19G C32A U56G C57U U82A: at most -4.2; A19G A26U C85A A97C A119U C123U: at most -4.2. Next, A19U C43G C54G A91G: at most -4.2. Next, C18U C54A A64G G83C A119U A147C: at most -4.2; A19U A28U A52G C105G G126C G141C U148A C149U A150C: at most -4.2; C18U A52U: -1.92. On to A19C U31C, for which the “polymerase ribozyme fitness (log ratio)” value was 1.56. Consider A19U C96A, for which the “polymerase ribozyme fitness (log ratio)” value is -0.531.

For the variant A19U C96U, the “polymerase ribozyme fitness (log ratio)” value is -0.369.

As to A19C G62C G84A A89G G117A, the “polymerase ribozyme fitness (log ratio)” value is -2.57. In the case of A19U A20U C35U G59C U77C C118U C123U G141A U151G, the “polymerase ribozyme fitness (log ratio)” value is at most -4.2. Next, A19U C57U C103G A119G C123A: -3.45; A19C C35G U53A C57A G92A U101C: -4.13. Next, A19U C79A: at most -4.2; A19G A49C C54A G68A C93A C95A C103U G124A: at most -4.2; C18U U55G C75U G92C: -1.73. Consider A19C C54U G67U C85A, for which the “polymerase ribozyme fitness (log ratio)” value was at most -4.2. As to A19G C38U G50A G86A C105A C116A A121U G141C, the “polymerase ribozyme fitness (log ratio)” value was at most -4.2. Consider A19G G25U A47C U78C C96A, for which the “polymerase ribozyme fitness (log ratio)” value is at most -4.2.

Take A19U C76U C131U: the “polymerase ribozyme fitness (log ratio)” value was 0.231. Next, A19G U56A G86A G141U: -1.64; A19C A22G U31G C38U A107U G117A: -4.16; A19U C87U A121C A147U: 0.743.

Take A19U A40U C54A A60G C96U: the “polymerase ribozyme fitness (log ratio)” value is -2.61. Next, A19C A24G C32U C38U G59A C85A G133U U145C: at most -4.2. Next, A19G U82G G124A G140C: -3.62.

Consider A19G G59U C76A C96U, for which the “polymerase ribozyme fitness (log ratio)” value was -1.25. Next, A19U G48A: -1.05; A19U G48U: -0.613. As to A19U G34U C51U U53C G81A G86U G92A C96U A98G, the “polymerase ribozyme fitness (log ratio)” value is at most -4.2.

With A19C G62U C95U C96A, the “polymerase ribozyme fitness (log ratio)” value was -2.36. Next, A19G U90G: at most -4.2; A19G G126C: 0.693; A19U C95U: -0.543. As for A19C C38A C57A G80U C95U C116G, the “polymerase ribozyme fitness (log ratio)” value is -1.83. Next, A19U C85G: -2.18. Next, A19U C85A: -1.33; A19C C43U C51G G71A C87G C105U C108U G141C: at most -4.2. Next, A19U C87G: -4.17. In the case of A19C C27U A29C A52C G86C A137G G143U, the “polymerase ribozyme fitness (log ratio)” value is at most -4.2. A19U A22C G94C C96G C123U G128A U139C U146C: the “polymerase ribozyme fitness (log ratio)” value is at most -4.2. Next, A19G G50A C69U G84U A98U A122G: at most -4.2; A19C A21G C57A G58U C72U C85U C103U U134C: -0.327. Next, A19G G84C A115U A121G: -3.97. Turning to A19U C35U G42U U55G G67A C85G A97C C114G G140U, the “polymerase ribozyme fitness (log ratio)” value is at most -4.2. Next, A19U A49C C69U U77G C79A G84A C99A A113C C114G A142C: at most -4.2.
